According to patent US20060057614A1 (priority 2004, published 2006):

Target: sodium Nav1.2 voltage-gated channel (expressed in Xenopus oocytes)
Assay: cell-based or functional assay

tethered µ-o-conotoxin MrVIA gave a current flux through the channel, whole cell currents in Xenopus oocytes of 90%.
